Substrate: O=C(O)CCC(=O)C(=O)O
Test: purified protein
Assay type: biochemical, Halorubrum sp. CSM-61
Conditions: α-KG varied 1-20 mM, amino donor (R)-methylbenzylamine co-varied at 5 equivalents, 0.5 mM PLP, phosphate pH 8.0, 1 M KCl, 30% DMF, 45 °C per general assay, the varied substrate is named only in Method

B1: BC61-TAm (Halorubrum sp. CSM-61) (protein)
chain: MGFDEMDVDTIWKNGEFLDWEDATTHVLTHALHYGSGVFEGVRCYDTEQGPAVFRWDEHLDRLFDSAKMYDLDIEHSREEITEATMELLRRQDLESCYIRPIAYYGYDSLGVSPKECPTDLVVAAWPWGAYLGEEALEDGVDVMVSSWRKHASSQVPTNVKTTGLYVNSMLAGEEARRNGYVEAIVLNKEGNVAEGPGENVFMVNDGEIYTTGPAQSILEGITRDTVIELAEERGYTVHDEAVVSRGQLYTADELFFTGSAAEVTPIRSVDDTEIGAGTRGPVTEELQSAFFDLVERRTDAHDDWFTYV
notes: full-length gene (930 bp), N-terminal 6xHis tag (pTA1228), expressed in Haloferax volcanii H1424, IMAC purified, 34-35 kDa
Km: 3.37 mM | kcat: 0.042 s⁻¹

— article PMC6597733, “Characterisation of a solvent-tolerant haloarchaeal (R)-selective transaminase isolated from a Triassic period salt mine” (Applied Microbiology and Biotechnology, 2019)
